Source: the nanobody polyreactivity screen of Harvey et al. (2022)

Experiment: yeast display, Sf9 membrane polyspecificity reagent, FACS + sequencing; frameworks hold sequencing errors
In short: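 A nanobody's polyreactivity label depends on the gate it was sorted from. Yeast display cells were stained with 10% biotinylated, detergent-solubilized Sf9 membrane reagent for 1 hour at 4 °C, enriched on streptavidin microbeads and sorted by FACS. The low and high (top ~1%) gates were set on anti-HA fluorescence for expression and streptavidin fluorescence for reagent binding.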

Sequence	polyreactivity (PSR sort gate)
QVQLVESGGGLVQAGGSLRLSCAASGNTFFPYTMGWYRQAPGKERELVAAITWSGVSTYYADSVKGRFTISRDNAKNTVYLQMNSLKPEDTAVYYCAAGPGYVRYPRSGVWYVTLYDYWGQGTQVTVSS	high polyreactivity
QVQLVESGGGLVQAGGSLRLSCAASGNTFGENAMGWDRQAPRKETELVAAITYGGTTNYADSVKGRFTISRDNAKNTVYLQMNSLKPEDTAVYYCNAKFGISQPGHSGLLKMDYWGQGTQVTVSS	low polyreactivity
QVQLVESGGGLVQAGGSLRLSCAASGNTFGKYGVGWYRQAPGKEREFVAAITSRGTSTYYADSVKGRFTISRDNEKNTVYLQMNSLKPEDTAVYYCNARPRYKYPRYDYWGQGTQVTVSS	high polyreactivity
QVQLVESGGGLVQAGGSLRLSCAASGNTFGLYAMGWYRQAPGKERELVATITWSVSTYADSVKGRFTISRDNAKNTVYLQMNSLKPEDTAVYYCAATTGPWYWRYDYWGQGTQVTVSS	high polyreactivity
QVQLVESGGGLVQAGGSLRLSCAASGNTFGPYDMGWYRQAPGKERELVAGITSGGSTYYADSVKGRFTISRDNAKNTVYLQMNSLKPEDTAVYYCAADYYLWVYWYDYWGQGTQVTVSS	high polyreactivity
QVQLVESGGGLVQAGGSLRLSCAASGNTFGRYAMGWSRQAPGKEREFVAAIRWRGATTYYADSVKRRFTISRDNAKNPVDLQMNSMKPEDTAVYYCAAYYWGQGTGFDYWGQGTQVTVSS	high polyreactivity
QVQLVESGGGLVQAGGSLRLSCAASGNTFIYYAMGWYRQAPGKERELVAAITWSGGSTYYADSVKGRFTISRDNAKNTVYLQMNSLKPEDTAVYYCAKFTHNYYYWGQGTQVTVSS	high polyreactivity
QVQLVESGGGLVQAGGSLRLSCAASGNTFKYYAMGWYRQAPGKERELVATISRTAGSTYYADSVKGRFTISRDNAKNTVYLQMNSLKPDDTAVYYCNKDRGHPFKYDYWGQGTQVTVSS	low polyreactivity
QVQLVESGGGLVQAGGSLRLSCAASGNTFLYYGMGWYRQAPGKERELVAAITQSGGTTYYADSVKGRCTISRDNAKNPVYLQMNSLKPEDTAVYYCAATRYYYYWYVYDDRGDYWGQGTQVTVSS	low polyreactivity
QVQLVESGGGLVQAGGSLRLSCAASGNTFPRYVMGWYRQAPGKERELVADITRRGGSTYYADSVKGRFTISRDNAKNTVYLQMNSLKPEDTAVYYCAALYLYGHQFYNDYYYWGQGTQVTVSS	high polyreactivity
QVQLVESGGGLVQAGGSLRLSCAASGNTFPTNVMGWYRQAPGKERELVAAITRSGGTTYYADSVKGRFTISRDNAKNTVYLQMNSLKPEDTAVYYCAAGPTQGWGRGYWGQGTQVTVSS	high polyreactivity
QVQLVESGGGLVQAGGSLRLSCAASGNTFRIYTMGWYRQSPGKEMELVATITRRGGSTYYADSVKGRFTISRDYAKNTVYLQMKSLKPEDTAVYYCAATTKLPRGHYWNYYWGQGTQVTVSS	high polyreactivity
QVQLVESGGGLVQAGGSLRLSCAASGNTFRIYTMVWYRQAPGKERELVATITRRGGSTYYADSVKGRFTISRDNAMNTVYLQMNSLKPEDTVVYYCAARVRGTGVYGGYNYWGQGTLVTVSS	high polyreactivity
QVQLVESGGGLVQAGGSLRLSCAASGNTFRRYAMGWYRQAPGKEREFVAAISSSGGRTYYADSVKGRFTISRDNAKNTVYVQMNSLKPEDTAVYYCNAVSYWVRGEMDYWGQGTQVTVSS	high polyreactivity
QVQLVESGGGLVQAGGSLRLSCAASGNTFRSYAMGWYRQAPGKERELVAAISSTGNTYYADSVKGRFTISRDNAKNTVYLQMNSLKPEDTAVYYCAASKWRRADYYYWGQGTQVTVSS	high polyreactivity
QVQLVESGGGLVQAGGSLRLSCAASGNTFSGTTMGWYRQAPGKERELVAAIRFTGGSTTYADSVKGRFTISRDNAKNTVYLQMNRLKPEDTAVYYCNTDWVSFRSIYHEYDYWGQGTQVTVSS	low polyreactivity
QVQLVESGGGLVQAGGSLRLSCAASGNTFSQYAMGWYRQAPGKERELVATISKSSGSTSYADSVKGRFTISRDNAKNTVYLQMNSLKPEDTAVYYCNADSSDVYHHLGVLFFSTWYDYWGQGTQVTVSS	low polyreactivity
